The target of test [1] is cof2_human CFL2 (UniProt Q9Y281).
The target in test [2] is cap2_human CAP2 (UniProt P40123).
Test [3] concerns the target T1, tmm79_human TMEM79 (UniProt Q9BSE2).
T1 sequence: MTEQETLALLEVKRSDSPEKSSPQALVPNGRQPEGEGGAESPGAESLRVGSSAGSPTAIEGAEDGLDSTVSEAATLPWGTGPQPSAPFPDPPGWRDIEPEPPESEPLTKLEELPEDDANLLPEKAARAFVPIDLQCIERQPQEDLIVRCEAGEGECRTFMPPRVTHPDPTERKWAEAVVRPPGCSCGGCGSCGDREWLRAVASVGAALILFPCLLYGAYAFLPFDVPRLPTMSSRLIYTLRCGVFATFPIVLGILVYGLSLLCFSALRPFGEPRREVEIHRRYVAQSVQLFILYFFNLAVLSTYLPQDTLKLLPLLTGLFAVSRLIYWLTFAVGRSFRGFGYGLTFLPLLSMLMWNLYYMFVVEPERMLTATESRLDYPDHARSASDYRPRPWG

The target of test [4] is T2, smim3_human SMIM3 (UniProt Q9BZL3).
T2 sequence: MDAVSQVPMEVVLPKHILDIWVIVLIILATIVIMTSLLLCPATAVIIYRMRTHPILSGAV

The target of test [5] is T1, tmm79_human TMEM79. The source holds these as a separate data set.
For test [6], the target named is T3, SYNE4, Q8N205-2.
T3 sequence: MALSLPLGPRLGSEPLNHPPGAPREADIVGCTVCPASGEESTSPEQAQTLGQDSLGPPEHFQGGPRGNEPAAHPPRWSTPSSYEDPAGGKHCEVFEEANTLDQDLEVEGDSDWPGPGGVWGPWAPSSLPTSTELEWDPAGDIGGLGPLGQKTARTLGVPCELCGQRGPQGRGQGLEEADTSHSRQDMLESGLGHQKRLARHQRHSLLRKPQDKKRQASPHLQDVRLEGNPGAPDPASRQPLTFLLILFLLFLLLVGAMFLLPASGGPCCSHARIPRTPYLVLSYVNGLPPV

Test [7] addresses T2, smim3_human SMIM3. This is another data set of the same source.

Consider “Actin, cytoplasmic 1 (Homo sapiens) (from UniProt P60709) E364K”, for which the “effect of a mutation on the interaction” value in test [1] and in test [2] was “disrupting interaction strength” each time.

As to “Surfactant protein C (Homo sapiens) (from UniProt P11686) C189G”, the “effect of a mutation on the interaction” value in test [3] is reported as “with no effect”; in test [4] it was “causing an interaction”; in test [5] it was “disrupting interaction strength”; in test [6], “with no effect”; in test [7], “with no effect”.

On to “Surfactant protein C (Homo sapiens) (from UniProt P11686) Y104H”, for which the “effect of a mutation on the interaction” value in test [3] was “with no effect”; in test [4], “causing an interaction”; in test [5] it was “disrupting interaction strength”; in test [6], “with no effect”; in test [7], “with no effect”.

Source of the values: IntAct's records for PubMed 25910212.
